# Assay results published in the DeepSol protein solubility set.
# Assay: soluble on expression in E. coli; label from the status in PepcDB or PDB records
row,Sequence,soluble on expression in E. coli
1,MESKREYDYILPGRAESYWLATVPEPSYPALKGDIRVDIAIIGGGIAGLTTAYLLKEAGFSSIAVIEAGRILRGVTGHTTAKVTSQHSLIYDRLLSKFGKRQAQQYAESNQAALEKIASIVASKKIDCDFVRKPSYVYAGSEDSTNKIQNEAQTARNLGLPASFEENLPLPFKTYGAVRFNNQAQFHPVKYLNALAEQIHEGGCHIFENTRALKIEGEEPVTITTDKGTIRAHKVVQAMHYPIHDRPGLFFQRLYQSRSYVLGVRIRDPFPDGMFINAEEPVRSLRSQSTDKGELILVSGEGHRTGEEEHEISRYQNLEKWVRSVYSVDSIDYRWSSQDAISIDHIPYIGRQTSGNDSIFLATGFKKWGMTMGTVAAMIIKDMIREKYNPWEEVYDPSRFKPVESAKTLLSQAVEATKGFVGDRILPTHKEASQIGPEEGAIVKIEGERVAAYRDRNGVLYTLNPSCRHLGCIVSWNDAEKTWDCPCHGSRYKATGEVIHSPAVYGLSEKKIRGQDKNNIHTLEHHHHHH,soluble
2,MGSDKIHHHHHHMTENKNEKLGWINGHWGVFKDLKVPINDRGLNFADGIFETILILNGIPQLLDEHLNRWEKSASILEMNSPPSKEWLISLVEDGINQAQLKNINGVIRINWTRGESEQRGIDISKTSLHSFWLEIDSYQPNFESISTIISQTERRNSFSRLSSCKTFSYNQGIQARIEAKNLGFNDALLLNSQGEICCATTANILVKRENNWLTPPSNSGCLPGIMRQRGIELNIIKEALIEATPKDNDEWFLINSLSCRPIQKINKKELKISTNPKEFWLSLLKI,not soluble
3,MGSDKIHHHHHHMDDFVQSKARKDIFRLKAYVPGKPIEEVKRELGLDSIIKLASNENPLGTSPLALAALQEGLNKIHLYPDANAYELKQELASFWQVPAEQIVVGNGSDELLLLLAQTFINPGDEVIHAEQTFSEYESTSTLMGAHSITIPLKEYKYDLKAILEAINTRTKIIYLCNPNNPTGTIVEQEEIELFMQQVPGEILVVFDEAYGEYVDNPAFGSGLQYLREGRNIVLLKTFSKIYGLAGLRIGYVITTPAIAAALDRVREPFNVNFAAQIAAQAALRDIDFVEKSRQLNLQGKDYLYQELARLGLDYVKTNTNFIFLDTGRDCQLVFRELLQRGVIIRTGDIFGYPTFIRLTIGTMEENRRFIKSLQEVLEVIPL,not soluble
4,MRGSHHHHHHDDYDGIPNLTAVQISPNADPALGLEYPVRPPVPGAGGLNASAKGIHSIAIGATAEAAKGAAVAVGAGSIATGVNSVAIGPLSKALGDSAVTYGAASTAQKDGVAIGARASTSDTGVAVGFNSKADAKNSVAIGHSSHVAANHGYSIAIGDRSKTDRENSVSIGHESLNRQLTHLAAGTKDTDAVNVAQLKKEIEKTQENTNKRSAELLANANAYAD,soluble
5,MGSDKIHHHHHHMTIDDLKSFMLVCRLHSFSTAAVELSMTQSALSKRLQAIQQEVGSEFISTENRRQILITESGKVFYRYAQRIVSSYDELEQELKAYRELKKGNLQIGRVPVMSQYGLTKIINIFERSYPQIDIHLNELEGNDLLMVLKAGEIDAGIIRDIQTKTIDNNHFNSYTLDRDELKVVLPANDSLNNKKRISIEELANYQVISLESGSGIYEKMVEIYNNAGIPLNVGFKTTHIETIMGMIKNSDQITFLFKKSAMPFMNKQLVMLSLDQPIYSNLELICPRENQHKPALTKFIEYMKKYTSEPVESYP,not soluble
6,MSVTVKRIIDNTVIVPKLPANEDPVEYPADYFRKSKEIPLYINTTKSLSDLRGYVYQGLKSGNVSIIHVNSYLYGALKDIRGKLDKDWSSFGINIGKAGDTIGIFDLVSLKALDGVLPDGVSDASRTSADDKWLPLYLLGLYRVGRTQMPEYRKKLMDGLTNQCKMINEQFEPLVPEGRDIFDVWGNDSNYTKIVAAVDMFFHMFKKHECASFRYGTIVSRFKDCAALATFGHLCKITGMSTEDVTTWILNREVADEMVQMMLPGQEIDKADSYMPYLIDFGLSSKSPYSSVKNPAFHFWGQLTALLLRSTRARNARQPDDIEYTSLTTAGLLYAYAVGSSADLAQQFCVGDNKYTPDDSTGGLTTNAPPQGRDVVEWLGWFEDQNRKPTPDMMQYAKRAVMSLQGLREKTIGKYAKSEFDK,soluble
7,MGSDKIHHHHHHMDKLSFNIFPNVNFIDLCMYQFGHEQCEPGHSFGPATRNHYLFHYVLSGTGTLMADNAKGITQTYNIKSGQGFLIFPGQINTYIADDKLPWEYIWIEFDGLRVKEALTTTELTKNNPVYHTHSKDIREKLVEEMLYITRHPSESPYHLIGHMYLFLDYLMQSAKSSKLVPGGKMSDFYIKEAMNYIEQNFQNDISIEDIAGVCGINRSYLGKIFKNSVGHSPQEFLMNYRMIKATELLKLTSLSIADVGSAVGYENQLHFSRAFKNIYGVAPREWRNEHK,not soluble
8,MLVVPARLHRWPPEVQDLFGREGPLVLEIGFGDGRFTAELARSRPDWLVLGAEVSAASVLRALRRMRREGLANVRLYHGQGPFALRNLVLPGTLDQVIVNFPDPWPKKRHQERRLLREAFFRRLSTRLKPGGSLLLTTDHEEYFRFALEEAERTGLYRVEVRPPPEAHLRTKYALKWKEAGRAFFHAAFIKLREDPAPWPPLRRYDVAHALLSGELPQDLALEKTPVRLKEGVAVFLEVARGKEGFYVLTHVEEEDLTQDLLLEVRKSARGVYAGVSRFGSPLITEAVKGAVRALVDRLEAHGLEVVQDHT,soluble
9,MSLEAKKSKAIVFSGVNQIELREVTLKPVSSTDVLVETWWSSISTGTEKMALNGLIPSPPFIFPFIPGYETVGRIVEAGDHVNQGLIGKFAYVAGSFGYEDVNAAFGGASQFIVCPVESLTVLDGIANPQCGIALPLGATALHIVDLAEVKNRKVLVLGQGAVGILAAELAKRFGASLVAVTEPHQRRLDISTSDIKVNPEKQDVSVALAGHEFDVLIDSTGIMSAIETGLRFLKFHGKVIFGGYYQRMNIDYSQAFNKELSFIAARQWAKGDLHRVRELIAAGKINAEKIFTHQCTVDDNLMEAYMQAFSDSDCLKMIIHWKHGNEAGEHFPTCNTANEGHHHHHH,soluble
10,MAGDPMKKRFSNKVLIIGYGSVSQCTLPLLLDKLDIPLENITLIDFEDKSKALKKYTNQGLTFVREKITPENLDQVLSQNMENEGMIIDLSWNIDANEIVKWCHDHDVLYVNTSVEVWDPAEKFLTQSLLEKSLYLRQMRLQELSRDWKDAPTAVVDHGANPGLITHFVKQGLLDIAARTCEDKKVSPEDEQEIALLAKNRDFARLARKLGIRVIHCSERDTQIASRPKEVNEFVGTWSIEGLREEGTAPVEIAWGTHESKLPPLAHIPPYGPKNVILLPQMGVNAWVRSWIPDEEIVGMAIRHGESYGLSKLLTVWEGEKAVYRPTVHYAYMPSHDTLSSLCELRGRNYELQPRLRIMTNEIVSGEDIMGALLMGHSYNSWWTGSALSIEEARSLAPGQNATTLQVAAGIVAAILWMLENPREGVKTPEDLPHDFVLDIARPYLGKFISTPSDWTPLKNRKIFFKESPAVKHDPDPWQFENFIFVGLEHHHHHH,soluble
11,LLQLNIQNFAIVRSLDIDWQSGMTTITGETGAGKSIAIDALGLCLGDRATTNVVRPNCKKADLAATFEIKKNKMARAWLKQHELVSEHDSECILRRVISAEGRSKSYINGSQVPLVQLKEIGQLLINIHGQHDHQLIVKANQQCRLLDNYANHTPLLSAVKHYAQQWNKLNKELEMLQQSKQQREAEQQLIQYQVTELDEFSLQ,not soluble
12,MAHHHHHHMLRRHFQLFLRRTPLWLADDGSSLFERYTEIENSNERRMSALKACGMFDDEWIATEKVHGANFGIYSIEGEKTIRYAKRSGIMHPTEHFFGYHMLVPQLQQYITVTREMLCDKLQKKLHTVLINGELFGGKYDHPSLQKTRKTVMVAGKPRTISAVQTDSFPQYSPDLHFYAFDIKYKETNEAEYVTLTFDDATELFKRVPGLLYARAIIRGPMSKVAAFDVEHFVTTIPPLVGMGNYPLKGNWAEGLVVKHAKRGTPGFDPKGLTILKFKCTAFQEISTDRRQGPRVDEMESVRRDSISRSGIQLPALESIIHDPVQLEASKFLLDHICENRLNAVLSKIGTDPFEKQEMTPDDLATLLAKDALKDFLKEAEPAIVNTPILTRRDMARYVLFESRQLVCSRWKAILQRQTADVVE,not soluble
13,MTAPISLRLVVEARDLPPMLPDVLRERFDRGETGVAWAPEHDASVGAPLGVLGGPEATAWPFAISEPPPVNVPALCAVGPCWWYPSFGAVIGNDGALYNATVGEARHGSADLSAIPGVASGGTRLVPPQDAPVLDGGAVFMPWGAGFNYGHFVIDALPSILALEQAGLLHDTPLLAPRLTDWQRELIAMATPGVRLQEVDAPAVRLGRAVFATSMDHFLHHPNGLLATLAERVTANAPKGAGARRVYLSRRGQSMRVMVGEAAFERALQARGFVIVRPETLGARAQVALMRDAEIIVGASGAALANAVFLPRGARVIEIQPTNFTSQWVRAACRQVGVEWRGYVCASPCPAHAAPLLARLRRGFKFAFRPDLDDLLSFVDAALLEHHHHHH,not soluble
14,MVLVELFGFGPHLMVDGYEANPDRLRDAELIRRVLNELPEEMEMTKVLPPFVYSYGPGGEDGVTGVVIIAESHIAIHTFPKKRFLSVDIFSCKAFDMAKALKKLAEVFEIRRYETYMINRGKEFPKDPELARQIVLGEREYLEARVG,soluble
15,IKNDGLKLDAYYLPAGKATNKTVIIIHGFRRNKTGMKAYTDMFANLGYNTLTVDNRGHGKSQGHYVGFGWLDKGDVEAWIRYLISKNKNVEIVPFGISMGGATVAMMSGDSLPSNVKALIEDSGYTSVEAEITYEAKAMYNLPQKPFVSTVSLISKLFAGYSYTEASSIKQVEKNTRPMLFMHGGADSYVPTKMVYQLYNADKDPEKQLWIAPNSGHVQGFGDHPSAYTAQIKKFLNLYFK,not soluble
16,MGHHHHHHSHMRPLTEEETRVMFEKIAKYIGENLQLLVDRPDGTYCFRLHNDRVYYVSEKIMKLAANISGDKLVSLGTCFGKFTKTHKFRLHVTALDYLAPYAKYKVWIKPGAEQSFLYGNHVLKSGLGRITENTSQYQGVVVYSMADIPLGFGVAAKSTQDCRKVDPMAIVVFHQADIGEYVRHEETLT,soluble
17,MAAACICQPNLLEINVSDGPLDMIRKKRKIQQPQLRPPLRENKCQPHFSVRKVNQSYIISLHKEITCQLIAEIVKQKLSRIWEKVYIPSYELISDKDGNQIYVEQSVDENRLTSEIMEKLDPNNIDIEAIEILFDDYHLELSRLTNGIIISSANDHFYREFSFNNIIDDNFKICGTSMSADSFDKIYGVMWIEVPFNGNGLQNDSAVNRVSTSHNQIEELNDIEQEIRAFNISRSNQESIIKKEVSRRLNGR,not soluble
18,MAIVGQPNLRELFDDAPTPHIAHPPHTHRRDFYVATDGSYASDGAGLGVIIETRDGSRVLRRSVPDTAPDNNVAEYRALHLGLDTLAARTPPDASVGVLVDHDALAGDVNSAVLATQRRDYQPVRAFSAPRDARHHWRGIRARVTGFAEIRAAQVDSSRNPAHALANEPSQYAHVNDEPDRCLLPDATTSTEPQIPPPSRSDRPAGDLEHHHHHH,not soluble
19,MGSDKIHHHHHHMCRWLAYTGNPIHLETVLFRAKHSLIDQSLHSELGATTTNGDGFGIGWYGDPDELPFRYRSVHPAWNDRNLREAARAIRSRMFVAHIRAATDTPVQETNCHPFRHGRWLFAHNGLIRDFHKLRRDLTMKVDPALFPTLEGSTDSELMFRLALTYGLEQTPLPALERMVGMVEETAARYRVDEPLNMTICATDGDRIIAVRYSSERQSRSLFHTTSFKHLHELYPHNPRIAEAGDDAFMVVSEPLVDLRGAWEEVAESTAIVAQGADVQQRPFNPRHT,not soluble
